{
  "source": "paper PMC10998826",
  "about": "(EJNMMI Research, 2024)",
  "key": {"[1]": {"system": "CCK2R positive tumors", "details": "athymic mouse model; cited from earlier work", "text": "About 90% of medullary thyroid carcinomas (MTCs) express the transmembrane G protein–coupled cholecystokinin 2 receptor (CCK2R) at a high density, making CCK2R an interesting target for peptide receptor radionuclide therapy (PRRT). Recently, a new generation of radiolabeled minigastrin derivatives, targeting CCK2R, with improved and promising properties was introduced. First clinical trials explore the potential of such compounds for imaging and PRRT of CCK2R expressing tumors, in particular for MTC [3–5]. However, the reported tumor radiation doses were lower than those usuall ..."}, "[2]": {"experiment": "Dosimetry of stomach", "type": "in vivo, humans", "details": "for Stomach dose: gastric wall", "procedure": "(§1) Planar whole-body scintigraphy and quantitative SPECT/CT acquisitions of neck/thorax/abdomen/pelvis were acquired with a hybrid SPECT/CT system (Siemens Intevo, Siemens Erlangen, Germany) at 1, 4, 24 and 72 h post injection (p.i.).\nA conservative segmentation approach was adopted for gastric dosimetry to ensure that the VOI included all activity distributed in the gastric wall. TACs were analyzed in the same way as for the tumor dosimetry with a mono-exponential model. The average absorbed dose D in the gastric wall was then calculated by using D=N·E/m , where N is the total number of disintegrations, E the average energy deposited in tissue and m = 0.15 kg is the mass of the stomach wall."}, "[3]": {"experiment": "Dosimetry of kidneys", "type": "in vivo, humans", "details": "for Kidney dose: median", "procedure": "as §1\nKidney dosimetry was performed using the dosimetry workflow in the DRT, which includes automatic organ segmentation, time activity curve modelling, and absorbed dose calculation using the medical internal radiation dosimetry (MIRD) method and voxel dosimetry.\nAfter automatic organ segmentation in the 24 h SPECT images, the kidney VOIs were manually corrected to ensure accurate segmentation. Then, the SPECT images at 1, 4 and 72 h where manually co-registered to the 24 h images. Time activity curves were fitted to the measured kidney activity at the four time points using a single exponential function. The calculated and measured data were then used to estimate the absorbed dose in the kidneys using the MIRD method.\n(§2) Bone marrow and kidney dosimetry was performed as described before."}, "[4]": {"experiment": "Bone marrow dosimetry", "type": "in vivo, humans", "details": "for Bone marrow dose: median", "procedure": "as §2"}, "[5]": {"experiment": "Acute toxicity, adverse events graded by CTCAE version 4.03", "type": "in vivo, humans", "details": "all patients, with and without Entresto premedication", "procedure": "(§3) Patients were allowed a light breakfast at the day of each infusion. […] Entresto® was given at an oral dose of 100 mg, containing 48.6 mg sacubitril and 51.4 mg valsartan 2 h before the start of one of the two infusions. Vital signs were recorded, and a 12-lead electrocardiogram was obtained before and after each injection. Adverse events were recorded and graded according to Common Terminology Criteria for Adverse Events (CTCAE) version 4.03."}, "[6]": {"system": "medullary thyroid carcinoma tumors", "experiment": "SPECT/CT based dosimetry of tumors", "type": "in vivo, humans", "details": "for Mean tumor dose: SPECT/CT dosimetry", "procedure": "as §3, §1\n(§4) Calibration of the SPECT/CT camera was performed with a National Institute of Standards and Technology traceable selenium-75 point source (uncertainty in activity 3%) every four weeks. Acquisitions (medium-energy low-penetration collimator) were performed in step and shoot mode using 20 s/view, 64 views/head using a non-circular orbit with a 180° detector configuration in a 128 × 128 matrix. The photo-peak window was set to 208 keV ± 10% (187.2–228.8 keV). Except for the first patient, the quantitative tomographic images (isotropic voxel size 5.08 mm^3) were reconstructed with xSPECT Quant™ (Siemens Healthcare, Siemens Erlangen, Germany) which uses the ordered subset conjugate gradient method (OSCGM) to calculate the quantitative activity distribution. The number of iterations (12, 24 or 60) with one subset and 3D-Gaussian post-filter with full width at half maximum (FWHM) of 16.0 mm and 20.8 mm were selected automatically by the reconstruction algorithm, based on the count statistic. Triple energy window scatter correction, CT-based attenuation correction, and resolution recovery were enabled for all image reconstructions. As the xSPECT Quant™ algorithm was not available at the site initially, images of the first patient were quantitatively reconstructed (isotropic voxel size of 3.9 mm^3) using the OSCGM algorithm with 24 iterations, one subset and a 3D-Gaussian post filter of 10.0 mm FWHM. For these reconstructions, both photo-peak energy windows at 113 keV ± 10% and 208 keV ± 10% were used. All other settings remained as stated above.\n(§5) At first a VOI with volume V0 and activity A0 enclosing the tumor and its surrounding background was drawn. Subsequently, the threshold was increased until a new VOI with volume Vspect and activity Aspect separating the tumor activity from background was found. The activity in the tumor at the fourth time point can then be estimated by A4=Aspect-A0-Aspect/V0-VspectVspect-VCT, where the second term is the background correction, with the tumor volume VCT determined in the contrast enhanced CT. Spill in and out of activity from the tumor volume into the background was not considered.\n(§6) Time activity curves (TAC) of the tumors were determined using the mean activity of 3 ml threshold VOIs, drawn in the 1, 4, 24 and 72 h p.i. images. A linear model yt=α+λe·t was fitted to the log-transformed data points to estimate the effective half-life Te=ln2/λe . The activity at the first acquisition is then given by A1=A4·e^λe·Δt where Δt is the time difference between the first and fourth acquisition. The total number of disintegrations can then be estimated by N=A1t1/2+∫t1e^-λet^′dt^′ where t1 is the time of the first acquisition.\n(§7) The average energy deposition E per disintegration in soft tissue voxels of 3.9 mm^3 and 5.08^3 mm^3 with density ρ=1g/cm^3 was calculated with FLUKA, resulting in the mean tumor dose given by D=N·E/ρ·VCT .\n(§8) In case the data was not suitable for single exponential fit, N was calculated numerically using trapezoidal integration until the fourth time point and after with analytical integration of the exponential decay using the half-live of Lutetium-177.\n(§9) The energy distribution in ICRP soft tissue of a Lu-177 point source was calculated with the MC-Simulation toolkit FLUKA version 4.1.0."}, "[7]": {"experiment": "SPECT/CT based dosimetry of tumors", "type": "in vivo, humans", "details": "human, iv, total radioactivity", "procedure": "as §3, §1, §4, §5, §6, §7, §8, §9"}, "[8]": {"details": "Entresto premedication, eight patients"}},
  "note": "Read-outs that look alike come from different tables or passages of the source.",
  "data": [
    {"compound": "CSCC[C@H](NC(=O)[C@H](Cc1c[nH]c2ccccc12)NC(=O)CNC(=O)[C@H](Cc1ccc(O)cc1)NC(=O)[C@H](C)NC(=O)[C@@H](CCC(=O)O)NC(=O)[C@@H](CCC(=O)O)NC(=O)[C@@H](CCC(=O)O)NC(=O)[C@@H](CCC(=O)O)NC(=O)[C@@H](CCC(=O)O)NC(=O)[C@@H](CCC(=O)O)NC(=O)CN1CCN(CC(=O)O)CCN(CC(=O)O)CCN(CC(=O)O)CC1)C(=O)N[C@@H](CC(=O)O)C(=O)N[C@@H](Cc1ccccc1)C(N)=O", "note": "[[^177Lu]Lu-PP-F11N, [^177Lu]Lu-DOTA-(DGlu)6-Ala-Tyr-Gly-Trp-Met-Asp-Phe-NH2, metal not drawn]", "values": [
      {"measurement": "Increase in tumor uptake on co-injection of phosphoramidon", "setting": "[1]", "result": "not significant"},
      {"measurement": "Increase in tumor uptake on co-injection of thiorphan", "setting": "[1]", "result": "only to a minor extent"},
      {"measurement": "Median absorbed dose of stomach after premedication compared to without", "setting": "[2]; [8]", "result": 2.1, "unit": "fold"},
      {"measurement": "Stomach dose", "setting": "[2]; with Entresto premedication, median", "result": 0.5, "unit": "Gy/GBq"},
      {"measurement": "Stomach dose", "setting": "[2]; without Entresto premedication, median", "result": 0.2, "unit": "Gy/GBq"},
      {"measurement": "Stomach dose", "setting": "[2]; without Entresto premedication, patient 4", "result": 0.23, "unit": "Gy/GBq"},
      {"measurement": "Stomach dose", "setting": "[2]; without Entresto premedication, patient 7", "result": 0.17, "unit": "Gy/GBq"},
      {"measurement": "Median absorbed dose of kidneys after premedication compared to without", "setting": "[3]; [8]", "result": 2.4, "unit": "fold"},
      {"measurement": "Kidney dose", "setting": "[3]; with Entresto premedication", "result": 0.11, "unit": "Gy/GBq"},
      {"measurement": "Kidney dose", "setting": "[3]; without Entresto premedication", "result": 0.05, "unit": "Gy/GBq"},
      {"measurement": "Median absorbed dose of bone marrow after premedication compared to without", "setting": "[4]; [8]", "result": 1.4, "unit": "fold"},
      {"measurement": "Bone marrow dose", "setting": "[4]; with Entresto premedication", "result": 0.05, "unit": "Gy/GBq"},
      {"measurement": "Bone marrow dose", "setting": "[4]; without Entresto premedication", "result": 0.03, "unit": "Gy/GBq"},
      {"measurement": "Serious adverse events", "setting": "[5]", "result": "No serious adverse event"},
      {"measurement": "Mean tumor dose", "setting": "[6]; with Entresto premedication, median of n = 6 tumor lesions", "result": 0.74, "unit": "Gy/GBq"},
      {"measurement": "Mean tumor dose", "setting": "[6]; with Entresto premedication, patient 4, 2nd tumor", "result": 0.07, "unit": "Gy/GBq"},
      {"measurement": "Mean tumor dose", "setting": "[6]; without Entresto premedication, median of n = 6 tumor lesions", "result": 0.28, "unit": "Gy/GBq"},
      {"measurement": "Mean tumor dose", "setting": "[6]; without Entresto premedication, patient 4, 2nd tumor", "result": 0.05, "unit": "Gy/GBq"},
      {"measurement": "tissue to tissue ratio", "setting": "[6]; human, tumor and bone marrow, iv, total radioactivity, without Entresto premedication, median, read-out: Tumor-to-bone marrow dose ratio", "result": 9.2},
      {"measurement": "tissue to tissue ratio", "setting": "[7]; tumor / bone marrow, 1.08 GBq, without Entresto premedication, patient 4, 2nd tumor, read-out: Tumor-to-bone marrow dose ratio", "result": 1.8},
      {"measurement": "tissue to tissue ratio", "setting": "[7]; tumor / bone marrow, with Entresto premedication, patient 4, 2nd tumor, read-out: Tumor-to-bone marrow dose ratio", "result": 1.4},
      {"measurement": "tissue to tissue ratio", "setting": "[7]; tumor / kidney, 1.08 GBq, without Entresto premedication, patient 4, 2nd tumor, read-out: Tumor-to-kidney dose ratio", "result": 1},
      {"measurement": "tissue to tissue ratio", "setting": "[7]; tumor / kidney, with Entresto premedication, patient 4, 2nd tumor, read-out: Tumor-to-kidney dose ratio", "result": 0.6},
      {"measurement": "tissue to tissue ratio", "setting": "[7]; tumor / stomach, 1.08 GBq, without Entresto premedication, patient 4, 2nd tumor, read-out: Tumor-to-stomach dose ratio", "result": 0.2},
      {"measurement": "tissue to tissue ratio", "setting": "[7]; tumor / stomach, with Entresto premedication, patient 4, 2nd tumor, read-out: Tumor-to-stomach dose ratio", "result": 0.1},
      {"measurement": "tissue to tissue ratio", "setting": "[7]; tumor and bone marrow, 1.08 GBq, without Entresto premedication, patient 7, 2nd tumor, read-out: Tumor-to-bone marrow dose ratio", "result": 15.7},
      {"measurement": "tissue to tissue ratio", "setting": "[7]; tumor and bone marrow, with Entresto premedication, patient 7, 2nd tumor, read-out: Tumor-to-bone marrow dose ratio", "result": 30.3},
      {"measurement": "tissue to tissue ratio", "setting": "[7]; tumor and kidney, 1.08 GBq, without Entresto premedication, median, read-out: Tumor-to-kidney dose ratio", "result": 8.3},
      {"measurement": "tissue to tissue ratio", "setting": "[7]; tumor and kidney, with Entresto premedication, median, read-out: Tumor-to-kidney dose ratio", "result": 7.8},
      {"measurement": "tissue to tissue ratio", "setting": "[7]; tumor and kidney, with Entresto premedication, patient 7, 2nd tumor, read-out: Tumor-to-kidney dose ratio", "result": 11.2},
      {"measurement": "tissue to tissue ratio", "setting": "[7]; tumor and stomach, 1.08 GBq, without Entresto premedication, median, read-out: Tumor-to-stomach dose ratio", "result": 1.5},
      {"measurement": "tissue to tissue ratio", "setting": "[7]; tumor and stomach, with Entresto premedication, median, read-out: Tumor-to-stomach dose ratio", "result": 1.1},
      {"measurement": "tissue to tissue ratio", "setting": "[7]; tumor and stomach, with Entresto premedication, patient 7, 2nd tumor, read-out: Tumor-to-stomach dose ratio", "result": 1.3}
    ]}
  ]
}
